According to US20160250325A1 (ISA PHARMACEUTICALS B V, published 2016):
Each block holds one binder with its values, some of them ahead of it. Ends that are not written are not given here. * marks the point of attachment. X1 = (RS)‑2,3‑di(palmitoyloxy)propyl, CCCCCCCCCCCCCCCC(=O)OCC(C*)OC(=O)CCCCCCCCCCCCCCC

Target: mouse TLR2 on a murine dendritic cell line (mouse, UniProt Q9QUN7 25-784)
Experiment: cell-based or functional assay

mouse TLR2 on a murine dendritic cell line, sequence (Q9QUN7 25-784): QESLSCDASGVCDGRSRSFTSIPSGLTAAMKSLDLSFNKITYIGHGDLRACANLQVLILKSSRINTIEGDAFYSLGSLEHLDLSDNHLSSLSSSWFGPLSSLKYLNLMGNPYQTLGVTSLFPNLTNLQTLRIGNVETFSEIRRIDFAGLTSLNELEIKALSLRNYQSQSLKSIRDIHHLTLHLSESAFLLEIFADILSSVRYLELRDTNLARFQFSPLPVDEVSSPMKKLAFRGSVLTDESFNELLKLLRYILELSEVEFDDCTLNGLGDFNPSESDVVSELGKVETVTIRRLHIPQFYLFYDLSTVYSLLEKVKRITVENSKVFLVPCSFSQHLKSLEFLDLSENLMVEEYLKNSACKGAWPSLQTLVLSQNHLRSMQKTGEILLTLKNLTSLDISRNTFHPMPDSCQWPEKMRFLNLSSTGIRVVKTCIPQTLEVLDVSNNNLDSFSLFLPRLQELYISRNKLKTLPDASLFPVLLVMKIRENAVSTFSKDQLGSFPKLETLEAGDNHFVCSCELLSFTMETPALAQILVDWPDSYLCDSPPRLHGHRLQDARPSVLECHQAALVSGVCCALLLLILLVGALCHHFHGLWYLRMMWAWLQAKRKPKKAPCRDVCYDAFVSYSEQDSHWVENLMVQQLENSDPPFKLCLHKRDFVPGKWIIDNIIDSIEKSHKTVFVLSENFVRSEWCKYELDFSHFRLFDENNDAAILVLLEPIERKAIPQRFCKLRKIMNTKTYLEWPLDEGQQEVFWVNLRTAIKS

IL-12 in supernatant of a murine dendritic cell line after 24 h (sandwich ELISA); concentration needed for similar stimulation, against Pam3CysSK4: 100 fold
IL-12 in supernatant of a murine dendritic cell line after 24 h (sandwich ELISA); maximal stimulation level against Pam3CysSK4: 2 fold
B1: U-Pam-12 (1-dodecadecyl-urea-Cys((RS)-2,3-di(palmitoyloxy)-propyl)-Ser-Lys-Lys-Lys-Lys-NH2) (peptide)
peptide: C(X1)SKKKK-NH2
modifications: not fully specified (N-terminus); printed as 1-dodecadecyl-urea-Cys((RS)-2,3-di(palmitoyloxy)-propyl)-Ser-Lys-Lys-Lys-Lys-NH2; also: epimer mixture at C-2 of dipalmitoyloxypropyl

IL-12 in supernatant of a murine dendritic cell line after 24 h (sandwich ELISA); concentration needed for similar stimulation, against Pam3CysSK4: 100 fold
IL-12 in supernatant of a murine dendritic cell line after 24 h (sandwich ELISA); maximal stimulation level against Pam3CysSK4: 2 fold
Binder: {1‑tetradecyl‑urea}-C(X1)SKKKK-NH2 (also: epimer mixture at C-2 of dipalmitoyloxypropyl) [U-Pam-14 (1-tetradecyl-urea-Cys((RS)-2,3-di(palmitoyloxy)-propyl)-Ser-Lys-Lys-Lys-Lys-NH2)]
